According to patent US20030068675, “Position dependent recognition of GNN nucleotide triplets by zinc fingers” (published 2003):

Legend:
Assay in all cases: EMSA
Conditions in all cases: tags: MBP fusion
ZFP SBS#344 = ZFP SBS#344 (synthetic)
Protocol: (§1) Affinity is measured by titrating purified protein against a fixed amount of labeled double-stranded oligonucleotide target. The target typically comprises the natural binding site sequence flanked by the 3 bp found in the natural sequence and additional, constant flanking sequences. The natural binding site is typically 9 bp for a three-finger protein and 2×9 bp +intervening bases for a six finger ZFP. […] For the assay the target is added at a concentration of 1 nM or lower (the actual concentration is kept at least 10-fold lower than the expected dissociation constant), purified ZFPs are added at various concentrations, and the reaction is allowed to equilibrate for at least 45 min. In addition the reaction mixture also contains 10 mM Tris (pH 7.5), 100 mM KCl, 1 mM MgCl2, 0.1 mM ZnCl2, 5 mM DTT, 10% glycerol, 0.02% BSA. (NB: in earlier assays poly d(IC) was also added at […].) The equilibrated reactions are loaded onto a 10% polyacrylamide gel, which has been pre-run for 45 min in Tris/glycine buffer, then bound and unbound labeled target is resolved by electrophoresis at 150V.

ZFP SBS#345 = ZFP SBS#345 (synthetic)
Protocol: as §1

ZFP SBS#343 = ZFP SBS#343 (synthetic)
Protocol: as §1

ZFP SBS#338 = ZFP SBS#338 (synthetic)
Protocol: as §1

ZFP SBS#337 = ZFP SBS#337 (synthetic)
Protocol: as §1

ZFP SBS#340 = target: T1, ZFP SBS#340 (synthetic)
T1 chain: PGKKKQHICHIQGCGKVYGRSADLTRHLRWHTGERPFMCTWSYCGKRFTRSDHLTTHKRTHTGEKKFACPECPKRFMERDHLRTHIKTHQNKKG
Protocol: as §1

ZFP SBS#339 = ZFP SBS#339 (synthetic)
Protocol: as §1

ZFP SBS#346 = ZFP SBS#346 (synthetic)
Protocol: as §1

ZFP SBS#378 = target: T2, ZFP SBS#378 (synthetic)
T2 chain: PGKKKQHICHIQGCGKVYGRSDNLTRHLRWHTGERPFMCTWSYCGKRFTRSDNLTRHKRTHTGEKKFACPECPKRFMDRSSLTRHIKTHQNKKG
Protocol: as §1

ZFP SBS#379 = target: T3, ZFP SBS#379 (synthetic)
T3 chain: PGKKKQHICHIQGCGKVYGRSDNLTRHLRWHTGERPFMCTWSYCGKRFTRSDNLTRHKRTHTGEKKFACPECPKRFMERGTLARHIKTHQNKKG
Protocol: as §1

ZFP SBS#494 = target: T4, ZFP SBS#494 (synthetic)
T4 chain: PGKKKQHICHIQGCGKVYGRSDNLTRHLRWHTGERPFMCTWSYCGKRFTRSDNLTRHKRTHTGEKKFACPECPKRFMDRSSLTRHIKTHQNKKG
Protocol: as §1

ZFP SBS#385 = target: T5, ZFP SBS#385 (synthetic)
T5 chain: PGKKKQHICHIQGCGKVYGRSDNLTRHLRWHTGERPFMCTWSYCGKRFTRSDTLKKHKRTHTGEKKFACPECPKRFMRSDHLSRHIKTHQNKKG
Protocol: as §1

ZFP SBS#386 = target: T6, ZFP SBS#386 (synthetic, UniProt P08047)
T6 chain: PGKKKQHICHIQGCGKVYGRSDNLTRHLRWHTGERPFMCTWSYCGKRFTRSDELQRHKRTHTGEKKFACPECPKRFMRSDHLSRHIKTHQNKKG
Protocol: as §1

ZFP SBS#387 = ZFP SBS#387 (synthetic)
Protocol: as §1

ZFP SBS#388 = ZFP SBS#388 (synthetic)
Protocol: as §1

ZFP SBS#390 = target: T7, ZFP SBS#390 (synthetic)
T7 chain: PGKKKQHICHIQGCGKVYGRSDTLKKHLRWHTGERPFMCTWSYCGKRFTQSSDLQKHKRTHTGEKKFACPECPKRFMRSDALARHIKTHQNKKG
Protocol: as §1

ZFP SBS#397 = ZFP SBS#397 (synthetic)
Protocol: as §1

ZFP SBS#396 = ZFP SBS#396 (synthetic)
Protocol: as §1

ZFP SBS#400 = target: T8, ZFP SBS#400 (synthetic)
T8 chain: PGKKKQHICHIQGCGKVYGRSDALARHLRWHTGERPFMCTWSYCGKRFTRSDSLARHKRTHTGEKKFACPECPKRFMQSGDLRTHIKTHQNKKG
Protocol: as §1

ZFP SBS#405 = target: T9, ZFP SBS#405 (synthetic)
T9 chain: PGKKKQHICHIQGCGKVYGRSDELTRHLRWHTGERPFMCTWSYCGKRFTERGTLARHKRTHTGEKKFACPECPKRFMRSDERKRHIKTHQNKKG
Protocol: as §1

ZFP SBS#408 = target: T10, ZFP SBS#408 (synthetic)
T10 chain: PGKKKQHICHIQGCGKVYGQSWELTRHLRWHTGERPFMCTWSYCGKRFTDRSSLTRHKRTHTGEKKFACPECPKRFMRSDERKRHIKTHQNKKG
Protocol: as §1

ZFP SBS#406 = target: T11, ZFP SBS#406 (synthetic)
T11 chain: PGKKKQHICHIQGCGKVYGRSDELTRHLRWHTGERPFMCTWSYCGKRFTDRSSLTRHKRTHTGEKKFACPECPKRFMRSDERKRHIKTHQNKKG
Protocol: as §1

ZFP SBS#407 = target: T12, ZFP SBS#407 (synthetic)
T12 chain: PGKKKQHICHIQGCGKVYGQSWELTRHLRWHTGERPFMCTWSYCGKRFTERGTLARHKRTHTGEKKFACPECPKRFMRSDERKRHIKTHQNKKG
Protocol: as §1

ZFP SBS#409 = target: T13, ZFP SBS#409 (synthetic)
T13 chain: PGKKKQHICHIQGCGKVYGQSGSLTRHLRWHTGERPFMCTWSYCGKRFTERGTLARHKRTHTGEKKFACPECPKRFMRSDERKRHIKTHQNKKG
Protocol: as §1

ZFP SBS#410 = target: T14, ZFP SBS#410 (synthetic)
T14 chain: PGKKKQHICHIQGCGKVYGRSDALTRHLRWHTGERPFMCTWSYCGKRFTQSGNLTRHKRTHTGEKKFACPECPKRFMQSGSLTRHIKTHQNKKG
Protocol: as §1

ZFP SBS#412 = ZFP SBS#412 (synthetic)
Protocol: as §1

ZFP SBS#413 = ZFP SBS#413 (synthetic)
Protocol: as §1

ZFP SBS#493 = target: T15, ZFP SBS#493 (synthetic, UniProt P08047)
T15 chain: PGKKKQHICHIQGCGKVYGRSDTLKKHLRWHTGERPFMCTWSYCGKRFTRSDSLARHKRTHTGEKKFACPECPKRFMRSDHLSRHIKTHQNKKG
Protocol: as §1

ZFP SBS#501 = target: T16, ZFP SBS#501 (synthetic)
T16 chain: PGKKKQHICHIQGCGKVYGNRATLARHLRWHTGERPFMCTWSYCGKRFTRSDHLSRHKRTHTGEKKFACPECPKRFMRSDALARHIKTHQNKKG
Protocol: as §1

ZFP SBS#502 = ZFP SBS#502 (synthetic, UniProt P08047)
Protocol: as §1

ZFP SBS#508 = target: T17, ZFP SBS#508 (synthetic)
T17 chain: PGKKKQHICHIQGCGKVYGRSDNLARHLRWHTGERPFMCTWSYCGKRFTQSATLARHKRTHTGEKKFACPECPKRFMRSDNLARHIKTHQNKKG
Protocol: as §1

ZFP SBS#507 = target: T18, ZFP SBS#507 (synthetic)
T18 chain: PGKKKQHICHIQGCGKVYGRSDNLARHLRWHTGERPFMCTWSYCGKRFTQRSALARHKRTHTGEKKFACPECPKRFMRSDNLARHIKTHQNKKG
Protocol: as §1

ZFP SBS#509 = ZFP SBS#509 (synthetic)
Protocol: as §1

ZFP SBS#510 = ZFP SBS#510 (synthetic)
Protocol: as §1

ZFP SBS#511 = ZFP SBS#511 (synthetic)
Protocol: as §1

ZFP SBS#513 = ZFP SBS#513 (synthetic)
Protocol: as §1

ZFP SBS#512 = ZFP SBS#512 (synthetic)
Protocol: as §1

ZFP SBS#514 = target: T19, ZFP SBS#514 (synthetic)
T19 chain: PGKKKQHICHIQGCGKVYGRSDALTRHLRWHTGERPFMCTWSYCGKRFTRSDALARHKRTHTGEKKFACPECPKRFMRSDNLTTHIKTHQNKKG
Protocol: as §1

Chain of ZFP SBS#513 (synthetic) (chain, as listed by the source): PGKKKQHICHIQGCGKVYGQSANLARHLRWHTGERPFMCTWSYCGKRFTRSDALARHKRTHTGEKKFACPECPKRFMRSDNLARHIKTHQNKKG
Chain of ZFP SBS#344 (synthetic) (chain, as listed by the source): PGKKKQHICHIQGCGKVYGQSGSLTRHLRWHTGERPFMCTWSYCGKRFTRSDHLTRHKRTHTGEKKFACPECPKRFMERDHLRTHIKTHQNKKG
Chain of ZFP SBS#509 (synthetic) (chain, as listed by the source): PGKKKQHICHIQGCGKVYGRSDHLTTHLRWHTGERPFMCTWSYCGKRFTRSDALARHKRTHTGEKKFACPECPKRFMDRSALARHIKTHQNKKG
Chain of ZFP SBS#338 (synthetic) (chain, as listed by the source): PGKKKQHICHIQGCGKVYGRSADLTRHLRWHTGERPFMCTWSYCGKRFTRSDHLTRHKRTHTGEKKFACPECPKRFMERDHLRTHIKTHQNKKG
Chain of ZFP SBS#339 (synthetic) (chain, as listed by the source): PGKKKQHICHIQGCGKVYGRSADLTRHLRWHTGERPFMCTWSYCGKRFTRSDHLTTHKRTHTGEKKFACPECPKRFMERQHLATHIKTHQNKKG
Chain of ZFP SBS#512 (synthetic) (chain, as listed by the source): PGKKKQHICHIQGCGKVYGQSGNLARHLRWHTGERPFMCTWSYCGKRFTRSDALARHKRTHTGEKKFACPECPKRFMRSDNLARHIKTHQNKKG
Chain of ZFP SBS#337 (synthetic) (chain, as listed by the source): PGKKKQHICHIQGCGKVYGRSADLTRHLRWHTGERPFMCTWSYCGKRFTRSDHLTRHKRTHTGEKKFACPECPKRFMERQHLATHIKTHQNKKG
Chain of ZFP SBS#397 (synthetic) (chain, as listed by the source): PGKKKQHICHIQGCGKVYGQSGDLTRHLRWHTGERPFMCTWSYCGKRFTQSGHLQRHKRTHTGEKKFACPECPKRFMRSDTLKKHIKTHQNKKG
Chain of ZFP SBS#510 (synthetic) (chain, as listed by the source): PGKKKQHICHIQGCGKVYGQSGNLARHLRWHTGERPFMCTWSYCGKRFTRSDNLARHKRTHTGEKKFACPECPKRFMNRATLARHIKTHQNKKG
Chain of ZFP SBS#387 (synthetic) (chain, as listed by the source): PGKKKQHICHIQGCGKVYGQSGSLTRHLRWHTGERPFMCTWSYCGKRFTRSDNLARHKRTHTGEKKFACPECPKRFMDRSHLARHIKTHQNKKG
Chain of ZFP SBS#396 (synthetic) (chain, as listed by the source): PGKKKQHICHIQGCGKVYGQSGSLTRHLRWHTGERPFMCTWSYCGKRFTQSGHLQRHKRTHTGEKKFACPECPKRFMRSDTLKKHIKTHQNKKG
Chain of ZFP SBS#413 (synthetic) (chain, as listed by the source): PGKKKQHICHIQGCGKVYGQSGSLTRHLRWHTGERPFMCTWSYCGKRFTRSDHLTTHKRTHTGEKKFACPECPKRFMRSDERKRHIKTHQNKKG
Chain of ZFP SBS#502 (P08047 other isoform, or with tags, fused parts or gaps): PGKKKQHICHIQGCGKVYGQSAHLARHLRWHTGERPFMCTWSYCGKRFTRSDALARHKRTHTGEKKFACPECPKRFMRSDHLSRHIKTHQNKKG
Chain of ZFP SBS#388 (synthetic) (chain, as listed by the source): as the sequence (P08047 other isoform, or with tags, fused parts or gaps) above, with A22G, H23D, A25T, A53N, R78D, S79R, D80S, S83A counted along it
Chain of ZFP SBS#511 (synthetic) (chain, as listed by the source): as the sequence (P08047 other isoform, or with tags, fused parts or gaps) above, with A22G, H23N, A53N, R78Q, D80S, H81A, S83A counted along it

B1: TGCGGGGCAA (dsDNA)
DNA 1: TGCGGGGCAA
DNA 2: TTGCCCCGCA
Work on B1 yielded a Kd (ZFP SBS#344) of 6 nM, a Kd (ZFP SBS#345) of 96 nM and a Kd (ZFP SBS#343) of 8 nM. The Kd (ZFP SBS#338) was 8 nM, the Kd (ZFP SBS#337) was 24 nM and the Kd (ZFP SBS#340) was 48 nM. It also gave a Kd (ZFP SBS#339) of 64 nM and a Kd (ZFP SBS#346) of 64 nM.

B2: GCCGAGGAGA (dsDNA)
DNA 1: GCCGAGGAGA
DNA 2: TCTCCTCGGC
Binder B2 has a Kd (ZFP SBS#378) of 31 nM, a Kd (ZFP SBS#379) of 3 nM and a Kd (ZFP SBS#494) of 90 nM.

B3: GGGGCGGAGC (dsDNA)
DNA 1: GGGGCGGAGC
DNA 2: GCTCCGCCCC
B3 showed a Kd (ZFP SBS#385) of 1.2 nM and a Kd (ZFP SBS#386) of 0.4 nM.

B4: GGCGAGGCAA (dsDNA)
DNA 1: GGCGAGGCAA
DNA 2: TTGCCTCGCC
With B4 the Kd (ZFP SBS#387) was 2.5 nM and the Kd (ZFP SBS#388) was 28 nM.

B5: GTGGCAGCGG (dsDNA)
DNA 1: GTGGCAGCGG
DNA 2: CCGCTGCCAC
Work on B5 yielded a Kd (ZFP SBS#390) of 20 nM.

B6: GCGGGAGCAG (dsDNA)
DNA 1: GCGGGAGCAG
DNA 2: CTGCTCCCGC
Binder B6 has a Kd (ZFP SBS#397) of 25 nM and a Kd (ZFP SBS#396) of 18.8 nM.

B7: TCAGTGGTGG (dsDNA)
DNA 1: TCAGTGGTGG
DNA 2: CCACCACTGA
Binder B7 has a Kd (ZFP SBS#400) of 40 nM.

B8: GCGGCCGCA (dsDNA)
DNA 1: GCGGCCGCA
DNA 2: TGCGGCCGC
Binder B8 has a Kd (ZFP SBS#405) of 110 nM, a Kd (ZFP SBS#408) of 380 nM and a Kd (ZFP SBS#406) of 110 nM. For the same binder, the Kd (ZFP SBS#407) was 410 nM and the Kd (ZFP SBS#409) was 50 nM.

B9: GCAGAAGTC (dsDNA)
DNA 1: GCAGAAGTC
DNA 2: GACTTCTGC
B9 was tested, and the Kd (ZFP SBS#410) was 3 nM.

B10: GCGTGGGCG (dsDNA)
DNA 1: GCGTGGGCG
DNA 2: CGCCCACGC
With B10 the Kd (ZFP SBS#412) was 5 nM.

B11: GCGTGGGCA (dsDNA)
DNA 1: GCGTGGGCA
DNA 2: TGCCCACGC
B11 gave a Kd (ZFP SBS#413) of 5 nM.

B12: GGGGTGGCGG (dsDNA)
DNA 1: GGGGTGGCGG
DNA 2: CCGCCACCCC
In the case of B12, the Kd (ZFP SBS#493) is reported as 300 nM.

B13: GTGGGGGTT (dsDNA)
DNA 1: GTGGGGGTT
DNA 2: AACCCCCAC
B13 gave a Kd (ZFP SBS#501) of 8 nM.

B14: GGGGTGGGA (dsDNA)
DNA 1: GGGGTGGGA
DNA 2: TCCCACCCC
B14 gave a Kd (ZFP SBS#502) of 60 nM.

B15: GAGGTAGAGG (dsDNA)
DNA 1: GAGGTAGAGG
DNA 2: CCTCTACCTC
B15 showed a Kd (ZFP SBS#508) of 10 nM and a Kd (ZFP SBS#507) of 10 nM.

B16: GTCGTGTGGC (dsDNA)
DNA 1: GTCGTGTGGC
DNA 2: GCCACACGAC
B16 was tested, and the Kd (ZFP SBS#509) was 100 nM.

B17: GTTGAGGAAG (dsDNA)
DNA 1: GTTGAGGAAG
DNA 2: CTTCCTCAAC
For B17, the Kd (ZFP SBS#510) was 100 nM and the Kd (ZFP SBS#511) was 100 nM.

B18: GAGGTGGAAG (dsDNA)
DNA 1: GAGGTGGAAG
DNA 2: CTTCCACCTC
With B18 the Kd (ZFP SBS#513) was 1.5 nM and the Kd (ZFP SBS#512) was 10 nM.

B19: TAGGTGGTGG (dsDNA)
DNA 1: TAGGTGGTGG
DNA 2: CCACCACCTA
For B19, the Kd (ZFP SBS#514) was 10 nM.
